# Source: IntAct's records for PubMed 20126263
# B1: TP53-binding protein 1 (Mus musculus), P70399-1 (parent)
# chain: MPGEQMDPTGSQLDSDFSQQDTPCLIIEDSQPESQVLEEDAGSHFSVLSRHLPNLQMHKENPVLDIVSNPEQSAVEQGDSNSSFNEHLKEKKASDPVESSHLGTSGSISQVIERLPQPNRTSSALAVTVEAASLPEEEKEEEELEEEKEGVGANAPGADSLAAEDSASSQLGFGVLELSQSQDVEEHTVPYDVNQEHLQLVTTNSGSSPLSDVDASTAIKCEEQPTEDIAMIEQPSKDIPVTVQPGKGIHVVEEQNLPLVRSEDRPSSPQVSVAAVETKEQVPARELLEEGPQVQPSSEPEVSSTQEDLFDQSSKTASDGCSTPSREEGGCSPVSTPATTLQLLQLSGQKPLVQESLSTNSSDLVAPSPDAFRSTPFIVPSSPTEQGGRKDEPMDMSVIPVGGEPFQKLHDDEAMETEKPLLPSQPAVSPQASTPVSRSTPVFTPGSLPIPSQPEFSHDIFIPSPSLEEPSDDVKKGGGLHSSSLTVECSKTSESEPKNFTDDLGLSMTGDSCKLMLSTSEYSQSSKMESLGSPRTEEDRENTQIDDTEPLSPVSNSKLPADSENVLVTPSQDDQVEMSQNVDKAKEDETEDRGDCKGREDAVAEDVCIDLTCDSGSQAVPSPATRSEALSSVLDQEEAMDTKEHHPEEGFSGSEVEEVPETPCGSHREEPKEEPMESIPLHLSLTETQSEALCLQKEAPKEECPEAMEVETSVISIDSPQKLQVLDQELEHKDPDTWEEATSEDSSVVIVDVKEPSPRADVSCEPLEEVEKCSDSQSWEGVAPEEEPCAENRLDTPEEKRIECDGDSKAETTEKDAVTEDSPQPPLPSVRDEPVRPDQETQQPQVQEKESPVTVDAEVADDKQLGPEGACQQLEKAPACASQSFCESSSETPFHFTLPKEGDIIPPLTGATPPLIGHLKLEPKRHSTPIGISNYPESTIATSDVTSESMVEINDPLLGNEKGDSESAPEMDGKLSLKMKLVSPETEASEESLQFSLEKPTTAERKNGSTAIAEPVASLQKPVPVFGCIYEAQQEKEAQSEAPPSAPDRANLLHFPSAQEEDKERPDVTPKLRQSEQPVKPVGPVMDDAAPEDSASPVSQQRASQEQRASQEPFSPAEDVMETDLLEGLAANQDRPSKMLMDRPTQSNIGIQTVDHSLCAPETVSAATQTVKSVCEQGTSTAEQNSGKQDATVQTERGSGEKPASAPVDDTESLHSQGEEEFEMPQPPHGHVLHRHMRTIREVRTLVTRVITDVYYVDGTEVERKVTEETEEPIVECQECETEVSPSQTGGSSGDLGDISSFSSKASSSHHTSSGTSLSAIHSSGSSGRGAGPLKGKASGTEAADFALPSSRGGPGKLSPRKGISQTGAPVCEEDGDAGLGIRQGGKAPVTPRGRGRRGRPPSRTTGTRETVVSGPLGVEDISPSMSPDDKSFTRIMPRVPDSTKRTDASSSTLRRSDSPEIPFQAATGSSDGLDSSSSGNSFVGLRVVAKWSSNGYFYSGKITRDVGAGKYKLLFDDGYECDVLGKDILLCDPIPLDTEVTALSEDEYFSAGVVKGHRKESGELYYSIEKEGQRKWYKRMAVILSLEQGNRLREQYGLGPYEAVTPLTKAADISLDNLVEGKRKRRSNISSPVTPTAASSSSTTPTRKATESPRASTGVPSGKRKLPTSEEERSPAKRGRKSATVKPGTVGAAEFVSPCETGDNIGEPSVLEEPRGPLPLNKTLFLGYAFLLTMATTSDKLASRSKLLDGPTGSSEEEEEFLEIPPFNKQYTECQLRAGAGYILEDFNEAQCNTAYQCLLIADQHCRTRKYFLCLASGIPCVSHVWVHDSCHANQLQNYRNYLLPAGYSLEEQRILDWQPRENPFQNLKVLLVSDQQQNFLELWSEILMTGGAASVKQHHSSAHNKDIALGVFDVVVTDPSCPASVLKCAEALQLPVVSQEWVIQCLIVGERIGFKQHPKYKHDYVSH
# Variants of: B1
# Conditions: with plk1_human PLK1, P53350
# Chain of plk1_human PLK1, P53350 (P53350 whole entry): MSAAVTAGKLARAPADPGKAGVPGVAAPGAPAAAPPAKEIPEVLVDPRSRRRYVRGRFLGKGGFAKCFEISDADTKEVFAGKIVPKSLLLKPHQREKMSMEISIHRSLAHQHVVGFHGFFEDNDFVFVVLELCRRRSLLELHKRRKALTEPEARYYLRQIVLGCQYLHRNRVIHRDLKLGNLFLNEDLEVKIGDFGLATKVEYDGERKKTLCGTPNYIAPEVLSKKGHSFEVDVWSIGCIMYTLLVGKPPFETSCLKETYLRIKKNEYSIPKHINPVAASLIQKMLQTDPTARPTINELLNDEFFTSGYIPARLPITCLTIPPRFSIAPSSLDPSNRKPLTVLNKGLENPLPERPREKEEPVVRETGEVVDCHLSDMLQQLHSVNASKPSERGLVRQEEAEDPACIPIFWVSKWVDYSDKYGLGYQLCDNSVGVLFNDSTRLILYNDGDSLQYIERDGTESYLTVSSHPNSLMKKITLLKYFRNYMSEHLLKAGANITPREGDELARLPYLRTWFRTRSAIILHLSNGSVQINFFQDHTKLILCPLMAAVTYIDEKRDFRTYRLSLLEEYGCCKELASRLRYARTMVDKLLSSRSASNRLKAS
row,Variant,effect of a mutation on the interaction
1,S382A,disrupting interaction
